B1: Intersectin-1, residues 1156 to 1213; numbered along this chain, Q15811 (parent)
chain: AVCQVIGMYDYTAQNDDELAFNKGQIINVLNKEDPDWWKGEVNGQVGLFPSNYVKLTT
B2: SH3 and PX domain-containing protein 2B, residues 155 to 209; numbered along this chain, A1X283 (parent)
chain: EQYVVVANYQKQESSEISLSVGQVVDIIEKNESGWWFVSTAEEQGWVPATCLEGQ

± gives the uncertainty stated by the source.

Variants of B1 are the subject of one data set. In words: abundance fitness (aPCA) (normalised: wild type 0, dead -1); higher = more abundant; growth selection in yeast, the domain comes from the species named. The note with it: Homo sapiens.
Regarding A20N, the abundance fitness was -0.484 ± 0.3.
On the same count and under the same terms, as for A20G, the figure is 0.1 ± 0.078; as for F49S, -0.817 ± 0.12.
On the same count and under the same terms, as for F49L, the figure is -0.527 ± 0.088.
F49R: the abundance fitness is -0.862 ± 0.09.
The same measure, in the same setting: as for F49N, the figure is -0.431 ± 0.21.
On the same count and under the same terms, as for F49K, the figure is -0.84 ± 0.14; as for N28Y, -0.011 ± 0.44; as for Y11W, -0.932 ± 0.17.
Still for that read-out and setting: as for Y11V, the figure is -0.765 ± 0.12; as for L30V, -0.081 ± 0.085.
With L30N, the abundance fitness was -0.505 ± 0.3.
On the same count and under the same terms, as for L30F, the figure is -0.123 ± 0.14.
The same measure, in the same setting: next, L30P: -1.04 ± 0.24.
On the same count and under the same terms, as for L30T, the figure is -0.476 ± 0.15; as for D16P, -0.259 ± 0.13.
As for D16Q, the abundance fitness came out at 0.115 ± 0.13.
Same read-out and setting: next, D16M: -0.225 ± 0.11.
On the same count and under the same terms, next, D16N: -0.302 ± 0.15.
The same measure, in the same setting: next, I27H: -0.748 ± 0.25.
For the variant I27D, the abundance fitness was -0.695 ± 0.21.
The same measure, in the same setting: next, I27L: -0.373 ± 0.11.
Same read-out and setting: as for I27M, the figure is -0.696 ± 0.22; as for I27R, -0.85 ± 0.1; as for Q45I, -0.1 ± 0.13.
Same read-out and setting: next, Q45V: 0.008 ± 0.084; Q45W: -0.537 ± 0.14.
For the variant Q45K, the abundance fitness was determined as 0.084 ± 0.14.
The same measure, in the same setting: as for Q45H, the figure is -0.398 ± 0.22; as for M8R, 0.145 ± 0.08.
Still for that read-out and setting: as for M8Q, the figure is 0.31 ± 0.14; as for Q4L, -0.538 ± 0.12; as for Y9K, 0.474 ± 0.15.
On the same count and under the same terms, next, Y9Q: 0.535 ± 0.14; Y9D: 0.196 ± 0.15.
Take V29H: the abundance fitness was -1.03 ± 0.26.
On the same count and under the same terms, as for V29Q, the figure is -1.01 ± 0.19.
Consider G7V, for which the abundance fitness is -0.551 ± 0.093.
On the same count and under the same terms, next, G24P: -0.825 ± 0.16; G24F: -0.739 ± 0.26; G24W: -0.528 ± 0.12.
Same read-out and setting: next, N52R: 0.022 ± 0.083; L48N: -0.166 ± 0.2; L48W: 0.028 ± 0.094.
Same read-out and setting: as for E18A, the figure is -0.646 ± 0.14; as for E18K, -0.439 ± 0.18; as for E18W, -0.905 ± 0.16.
Consider Y53D, for which the abundance fitness is -0.834 ± 0.18.
Turning to Y53V, the abundance fitness was -0.343 ± 0.089.
The same measure, in the same setting: as for Y53L, the figure is -0.155 ± 0.086; as for Y53G, -0.601 ± 0.086; as for Y53Q, -0.224 ± 0.14.
Still for that read-out and setting: next, D34V: -0.691 ± 0.12.
Same read-out and setting: as for K55T, the figure is -0.225 ± 0.11.
As for K55D, the abundance fitness is -0.513 ± 0.15.
The same measure, in the same setting: next, K55R: 0.067 ± 0.084.
Still for that read-out and setting: next, C3S: -0.452 ± 0.1.
Same read-out and setting: as for C3T, the figure is -0.123 ± 0.12; as for N43L, -0.412 ± 0.11.
For the variant N43I, the abundance fitness is -0.93 ± 0.2.
Consider N43P, for which the abundance fitness is -0.736 ± 0.19.
Turning to P50I, the abundance fitness is -0.671 ± 0.35.
Regarding P50K, the abundance fitness was -0.547 ± 0.21.
As for V46Q, the abundance fitness was -0.242 ± 0.14.
On the same count and under the same terms, next, V46R: -0.375 ± 0.09.
In the case of V46S, the abundance fitness is -0.296 ± 0.09.
Still for that read-out and setting: next, V46M: -0.396 ± 0.18; V46E: -0.412 ± 0.13.
On the same count and under the same terms, next, V46Y: -0.34 ± 0.17.
Still for that read-out and setting: next, T57H: -0.003 ± 0.14; T57D: -0.055 ± 0.15; T57Y: -0.063 ± 0.15.
On to T57Q, for which the abundance fitness was 0.028 ± 0.15.
With T57S, the abundance fitness was -0.174 ± 0.09.
Same read-out and setting: as for V42N, the figure is -0.756 ± 0.48.
Still for that read-out and setting: as for V42G, the figure is -0.62 ± 0.094; as for V42E, -0.949 ± 0.22; as for Q14E, -0.122 ± 0.18.
For the variant W37T, the abundance fitness was -0.276 ± 0.13.
Still for that read-out and setting: next, W37K: -0.792 ± 0.2.
The same measure, in the same setting: next, W37G: -0.72 ± 0.099; W37R: -0.49 ± 0.084; W37D: -0.637 ± 0.17.
Turning to W37P, the abundance fitness was -0.947 ± 0.19.
Same read-out and setting: as for K32N, the figure is -0.339 ± 0.18.
Still for that read-out and setting: next, K32T: -0.093 ± 0.14.
On the same count and under the same terms, as for T58G, the figure is 0.053 ± 0.22; as for V2G, -0.115 ± 0.089; as for N15W, -0.635 ± 0.12.
Consider N15G, for which the abundance fitness was 0.047 ± 0.085.
Still for that read-out and setting: as for D17Y, the figure is -0.359 ± 0.24.
The same measure, in the same setting: as for D17S, the figure is 0.126 ± 0.091; as for D17P, -0.592 ± 0.19; as for D17I, -0.419 ± 0.23.
On the same count and under the same terms, next, G44R: -0.83 ± 0.1; G44H: -0.658 ± 0.23.
Turning to E33R, the abundance fitness was -0.367 ± 0.11.
Same read-out and setting: next, E33K: -0.236 ± 0.18; E33G: -0.241 ± 0.098; F21A: -0.913 ± 0.17.
Same read-out and setting: as for F21P, the figure is -1.06 ± 0.26; as for F21M, -0.643 ± 0.18; as for S51G, -0.87 ± 0.12.
The same measure, in the same setting: as for S51F, the figure is -0.942 ± 0.2.
S51W: the abundance fitness was -0.877 ± 0.17.
Same read-out and setting: as for S51H, the figure is -0.517 ± 0.22; as for D36I, -0.138 ± 0.22; as for D36T, -0.143 ± 0.12.
Still for that read-out and setting: as for G40M, the figure is -0.658 ± 0.17.
Still for that read-out and setting: next, G40T: -0.56 ± 0.17; G40A: -0.753 ± 0.12; G40L: -0.783 ± 0.12.
For the variant L19F, the abundance fitness was -0.733 ± 0.24.
Still for that read-out and setting: next, L19T: -0.648 ± 0.17; L19N: -0.7 ± 0.18; L19K: -0.908 ± 0.33.
Still for that read-out and setting: next, K23V: -0.21 ± 0.097.
Still for that read-out and setting: next, K23S: -0.214 ± 0.09; N22W: -0.466 ± 0.13; N22V: -0.06 ± 0.086.
In the case of E41K, the abundance fitness was -0.456 ± 0.15.
On the same count and under the same terms, next, E41Y: -0.887 ± 0.23.
On the same count and under the same terms, next, I6Y: -0.548 ± 0.24; I6K: -0.269 ± 0.2; G47V: -0.796 ± 0.11.
Still for that read-out and setting: as for G47P, the figure is -0.867 ± 0.18; as for W38M, -0.733 ± 0.24; as for D10A, -0.217 ± 0.1.
D10Y: the abundance fitness was -0.838 ± 0.37.
On the same count and under the same terms, as for D10P, the figure is -0.246 ± 0.15; as for V5F, -0.772 ± 0.19; as for V5T, -0.526 ± 0.15.
Same read-out and setting: next, V5L: -0.891 ± 0.15; V54P: -0.842 ± 0.17; V54T: -0.065 ± 0.14.

The next data set covers variants of B2. The description is as above. The note with it: Homo sapiens.
Turning to G54A, the abundance fitness came out at 0 ± 0.1.
On the same count and under the same terms, next, G54T: -0.069 ± 0.26; G54D: -0.144 ± 0.1.
The same measure, in the same setting: next, G54C: -0.04 ± 0.12.
On the same count and under the same terms, next, G54Q: 0.121 ± 0.24; G54E: 0.11 ± 0.13; G54H: -0.345 ± 0.2.
As to G54F, the abundance fitness is -0.143 ± 0.12.
The same measure, in the same setting: next, G54L: 0.07 ± 0.089.
Same read-out and setting: as for G54M, the figure is -0.098 ± 0.22.
Same read-out and setting: as for G54I, the figure is 0.079 ± 0.089; as for G54V, 0.008 ± 0.1.
Regarding G54R, the abundance fitness is -0.019 ± 0.1.
The same measure, in the same setting: next, G54Y: -0.042 ± 0.26; G54N: 0.025 ± 0.12.
Still for that read-out and setting: next, G54K: -0.231 ± 0.19; G54P: -0.112 ± 0.25; Q55I: -0.099 ± 0.11.
Consider Q55V, for which the abundance fitness is -0.44 ± 0.17.
Still for that read-out and setting: as for Q55D, the figure is -0.034 ± 0.16; as for Q55P, 0.045 ± 0.18; as for Q55S, -0.133 ± 0.12.
Same read-out and setting: next, Q55T: -0.07 ± 0.27; Q55N: -0.551 ± 0.29; Q55H: -0.004 ± 0.45.
The same measure, in the same setting: next, Q55M: -0.233 ± 0.25; Q55W: -0.329 ± 0.3.
For the variant Q55Y, the abundance fitness is -0.267 ± 0.19.
The same measure, in the same setting: as for Q55G, the figure is -0.229 ± 0.16.
With Q55L, the abundance fitness is -0.138 ± 0.15.
Take Q55R: the abundance fitness came out at 0.054 ± 0.12.
On the same count and under the same terms, next, Q55E: -0.341 ± 0.44.

These data come from the Human Domainome abundance scans (Beltran et al. 2025).
